Blank lines part the entries; values can stand above or below the molecule they belong to.
Experiments:
[1] = molecular target: T1, human GDP-mannose 4,6-dehydratase (hGMD) (Homo sapiens, UniProt O60547); test: isothermal titration calorimetry; format: binding
T1 construct: gene GMDS; purified enzyme, wild type and point variants; homodimer in crystals (two to four homodimers per asymmetric unit); construct borders, tags and host only in supplement
T1 sequence (O60547 2-372 limits assumed): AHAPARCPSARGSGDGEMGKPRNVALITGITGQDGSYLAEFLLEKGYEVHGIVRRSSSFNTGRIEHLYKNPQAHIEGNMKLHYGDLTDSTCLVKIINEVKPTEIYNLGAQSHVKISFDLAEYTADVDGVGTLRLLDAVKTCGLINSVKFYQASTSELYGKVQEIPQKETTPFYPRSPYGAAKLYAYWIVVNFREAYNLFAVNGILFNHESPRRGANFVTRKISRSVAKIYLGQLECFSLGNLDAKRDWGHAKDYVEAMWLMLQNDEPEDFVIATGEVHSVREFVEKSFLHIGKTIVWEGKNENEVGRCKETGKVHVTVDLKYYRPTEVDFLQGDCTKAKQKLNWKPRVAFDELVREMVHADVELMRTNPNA

[2] = molecular target: T2, human GDP-mannose 4,6-dehydratase (hGMD) (Homo sapiens, UniProt O60547, E157Q); test: X-ray crystal structure, […] Å; details: GDP-mannose also bound; NADP+ binding site
T2 construct: gene GMDS; purified enzyme, wild type and point variants; homodimer in crystals (two to four homodimers per asymmetric unit); construct borders, tags and host only in supplement
T2 sequence (O60547 2-372 E157Q limits assumed): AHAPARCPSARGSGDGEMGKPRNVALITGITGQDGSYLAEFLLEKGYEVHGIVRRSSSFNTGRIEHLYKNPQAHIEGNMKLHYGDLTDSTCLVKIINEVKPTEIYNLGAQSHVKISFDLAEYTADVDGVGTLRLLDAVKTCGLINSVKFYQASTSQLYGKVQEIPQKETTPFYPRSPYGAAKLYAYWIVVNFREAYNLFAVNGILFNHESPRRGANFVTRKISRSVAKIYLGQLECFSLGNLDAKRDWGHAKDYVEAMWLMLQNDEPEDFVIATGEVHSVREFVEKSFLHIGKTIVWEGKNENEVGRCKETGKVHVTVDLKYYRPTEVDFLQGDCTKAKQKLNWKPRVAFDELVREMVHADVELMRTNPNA

[3] = substrate: Nc1nc2c(ncn2[C@@H]2O[C@H](COP(=O)(O)OP(=O)(O)O[C@H]3O[C@H](CO)[C@@H](O)[C@H](O)[C@@H]3O)[C@@H](O)[C@H]2O)c(=O)[nH]1; test: initial rate measurements; format: biochemical, Homo sapiens; details: 37 °C
From the text: initial rate measurements on human GDP-mannose 4,6-dehydratase (hGMD)

Kd [1]: 1600 nM
Molecule: Nc1nc2c(ncn2[C@@H]2O[C@H](COP(=O)(O)OP(=O)(O)O[C@H]3O[C@H](CO)[C@@H](F)[C@H](O)[C@@H]3O)[C@@H](O)[C@H]2O)c(=O)[nH]1 [GDP-4″-deoxy-4″-fluoro-mannose]

Molecule: NC(=O)c1ccc[n+]([C@@H]2O[C@H](COP(=O)(O)OP(=O)(O)OC[C@H]3O[C@@H](n4cnc5c(N)ncnc54)[C@H](OP(=O)(O)O)[C@@H]3O)[C@@H](O)[C@H]2O)c1 [NADP^+]
X-ray crystal structure, 1.47 Å [2]: each monomer has bound GDP-mannose (purple) and NADP^+ (yellow)

B1: human GDP-mannose 4,6-dehydratase (hGMD) (Homo sapiens) (protein)
chain: AHAPARCPSARGSGDGEMGKPRNVALITGITGQDGSYLAEFLLEKGYEVHGIVRRSSSFNTGRIEHLYKNPQAHIEGNMKLHYGDLTDSTCLVKIINEVKPTEIYNLGAQSHVKISFDLAEYTADVDGVGTLRLLDAVKTCGLINSVKFYQASTSELYGKVQEIPQKETTPFYPRSPYGAAKLYAYWIVVNFREAYNLFAVNGILFNHESPRRGANFVTRKISRSVAKIYLGQLECFSLGNLDAKRDWGHAKDYVEAMWLMLQNDEPEDFVIATGEVHSVREFVEKSFLHIGKTIVWEGKNENEVGRCKETGKVHVTVDLKYYRPTEVDFLQGDCTKAKQKLNWKPRVAFDELVREMVHADVELMRTNPNA
notes: purified enzyme, wild type and point variants; homodimer in crystals (two to four homodimers per asymmetric unit); construct borders, tags and host only in supplement
Km [3]: 8 ± 1 µM
kcat [3]: 0.42 ± 0.08 s⁻¹

B2: human GDP-mannose 4,6-dehydratase (hGMD) (Homo sapiens; S156A) (protein)
chain: AHAPARCPSARGSGDGEMGKPRNVALITGITGQDGSYLAEFLLEKGYEVHGIVRRSSSFNTGRIEHLYKNPQAHIEGNMKLHYGDLTDSTCLVKIINEVKPTEIYNLGAQSHVKISFDLAEYTADVDGVGTLRLLDAVKTCGLINSVKFYQASTAELYGKVQEIPQKETTPFYPRSPYGAAKLYAYWIVVNFREAYNLFAVNGILFNHESPRRGANFVTRKISRSVAKIYLGQLECFSLGNLDAKRDWGHAKDYVEAMWLMLQNDEPEDFVIATGEVHSVREFVEKSFLHIGKTIVWEGKNENEVGRCKETGKVHVTVDLKYYRPTEVDFLQGDCTKAKQKLNWKPRVAFDELVREMVHADVELMRTNPNA
notes: as for B1
Km [3]: 127 ± 5 µM
kcat [3]: 0.05 ± 0.01 s⁻¹
